In the nanobody polyreactivity screen of Harvey et al. (2022):

Test: yeast display, Sf9 membrane polyspecificity reagent, FACS + sequencing; frameworks hold sequencing errors
Method in brief: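 A synthetic nanobody library was expressed on Saccharomyces cerevisiae BJ5465 by galactose induction for 36–48 hours. The library was stained for 1 hour at 4 °C with 10% biotinylated, detergent-solubilized Sf9 membrane reagent and enriched with streptavidin microbeads before FACS. Low and high (top ~1%) gates were set on anti-HA fluorescence for expression and streptavidin fluorescence for reagent binding, and each polyreactivity label reflects the gate of origin.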

Sequence	polyreactivity (PSR sort gate)
QVQLVESGGGLVQAGGSLRLSCAASGSTFYVNAMGWYRQAPGKERELVAAITKSGGNTYYADSVKGRFTISRDNAKNTVYLQMNSLKPEDTAVYYCAKKYPRDMDYWGQGTQVTVSS	high polyreactivity
QVQLVESGGGLVQAGGSLRLSCAASGSTFYVNAMGWYRQAPGKERELVARITENGGITYYADSVKGRFTISRDNAKNTVYLQMNSLKPEDTAVYYCNTVQYRNEMGYWGQGTQVTVSS	high polyreactivity
QVQLVESGGGLVQAGGSLRLSCAASGSTFYVNAMGWYRQAPGKERELVATISSGGSTNYADSVKGRFTISRDNAKNTVYLQMNSLKPEDTAVYYCAKEYGSIIPYDYWGQGTQVSVSS	low polyreactivity
QVQLVESGGGLVQAGGSLRLSCAASGSTFYVNDMGWYRQAPGKERELVATISSGSSTYYADSVKGRFTISRDNAKNTVYFQMNSLKPEDTAVYYCAADGVAEEGFDAPYDYWGQGTQVTVSS	low polyreactivity
QVQLVESGGGLVQAGGSLRLSCAASGSTFYVNTMGWYRQAPGKERELVAAITDSGVGTYADSVKGRFTISRDNAKNTVYLQMNSLKPEDTAVYYCAADGVTRDYDYWGQGTQVTVSS	low polyreactivity
QVQLVESGGGLVQAGGSLRLSCAASGSTFYVYAMGVYRQAPGKERELVAAIRGGGSTNYADSVKGRFTISRDNAKNTVYLQMNSLKPEDTAVYYCAARYRSLRYRPSGYSYNYWGQGTQVTVSS	high polyreactivity
QVQLVESGGGLVQAGGSLRLSCAASGSTFYVYAMGWYRKAPGKEREFVAVITTSGGTTYYADSVKGRFTISRDNAKNTVYLQMNSLKPEDTAVYYCNAGVGYYSLPYDYWGQGTQVTVSS	low polyreactivity
QVQLVESGGGLVQAGGSLRLSCAASGSTFYVYAMGWYRQAPGKDRELVAAITFSGGSTYADSVKGRFTISRDNAKNTVYLQMNSLKPEDTAVYYCATDERGRYTVVYVDEFLYDYWGQGTQVTVSS	low polyreactivity
QVQLVESGGGLVQAGGSLRLSCAASGSTFYVYAMGWYRQAPGKERELVAAIDRGSSTYADSVKGRFTISRDNAKNTVYLQMNSLKPEDTAVYYCAAEKERDEEYDYWGQGTQVTVSS	low polyreactivity
QVQLVESGGGLVQAGGSLRLSCAASGSTFYVYAMGWYRQAPGKERELVAAITSGDDTNYADSVKGRFTISRDNAKNTVYLQMNSLKPEDPAVYYCAAEAVGYGSPRGYYWYDYWGQGTQVTVSS	high polyreactivity
QVQLVESGGGLVQAGGSLRLSCAASGSTFYVYAMGWYRQAPGKERELVAAITSGSSTYADSVKGRFTISRDNAKNTVYLQMNSLKPEDTAVFYCNALSRTAWSYYLYPSTPFDYWGQGTQVTVSS	low polyreactivity
QVQLVESGGGLVQAGGSLRLSCAASGSTFYVYDMGWYRQAPWKERELVAAISSGAGSTYYADSVKGRFTSSRDNAKNTVYLKLNSLKRKIPRSITALLFTVNGGGSRSHDYWAQGTQVTVSS	low polyreactivity
QVQLVESGGGLVQAGGSLRLSCAASGSTFYWNALGWYRQAPGKERELVADIDGRGGSTYYADSVKGRFTISRDNAKNTVYLQMNSLKPEDTAVYYCAARAPFLSVPSELDYWGQGTQVTVSS	low polyreactivity
QVQLVESGGGLVQAGGSLRLSCAASGSTFYWNGMGWYRQAPGKERELVAAITKSGSRTYYADSVKGRFTISRDNAKNTVYLQMNSLKPEDTAVYYCAAVNYIYTGGGTYYYWGQGTQVTVSS	high polyreactivity
QVQLVESGGGLVQAGGSLRLSCAASGSTFYWYAMGWYRQAPGKEREFVAAISLGSGSTYYADSVKGRFTISRDNAKNTVYLQMNSLKPEDTAVYYCATVPWYIKVGQKRNDYWGQGTQVTVSS	high polyreactivity
QVQLVESGGGLVQAGGSLRLSCAASGSTFYYAMGWYRQAPGKEMELVASITFSTGSTYYADSVKGRFTISRDNAKNTVYLQMNSLKPEDTAVYYCATGVDTYSLTVEHDSWGQGTQVTVSS	low polyreactivity
QVQLVESGGGLVQAGGSLRLSCAASGSTFYYNAMGWYRQAPGKEREFVAAITYTGGSTDYADSVKGRFTISRDNAKNTVYLQMNSLKPEDTAVYYCAKGTYGYISTWYDYWGQGTQVTVSS	low polyreactivity
QVQLVESGGGLVQAGGSLRLSCAASGSTFYYNAMGWYRQAPGKERELVADISWRGGITYYADSVKGRFTISRDNAKNTVYLQMNSLKPEDTAVYYCAADIYPDWIYLLYGYWGQGTQVTVSS	low polyreactivity
QVQLVESGGGLVQAGGSLRLSCAASGSTFYYNAMGWYSQAPGKERELVAAISSDGSTNYADSVKGRFTISRDNAKNTVNLQMNSLKPEDTAVYYCAKKDFYFAPSPGYYRSRDYWGQGTQVTVSS	low polyreactivity
QVQLVESGGGLVQAGGSLRLSCAASGSTFYYNTLGWYRQAPGKERELVAAISRSGGSTYYADSVKGRFTISRDNAKNTVYLQMNSLKPEDTAVYYCAARIIGARNLYGYWGQGTQVTVSS	high polyreactivity
QVQLVESGGGLVQAGGSLRLSCAASGSTFYYNTMGWYRQAPGKDRELVAAITWTGGSTYYADSVKGRFTISRDNAKNTVYLQMNSLKPEDTAVYYCAAVNWRDEIYDYWGQGTQVTVSS	low polyreactivity
QVQLVESGGGLVQAGGSLRLSCAASGSTFYYNVMGWYRQAPGKEREFVAAITQRGGSTYYADSVKGRFTISRDNAKNTVYLQMNSLKPEDTAVYYCAARTRYDFDWGQGTQVTVSS	high polyreactivity

Sequence	polyreactivity (PSR sort gate)
QVQLVESGGGLVQAGGSLRLSCAASGSTFYYYAMGWYRPAPGKERELVAAINYNGGSTHYADSVKGRFTISRDNAKNTVYLQMNSLKPEDTAVYYCAAKYRLSYTHGYWGQGTQVTVSS	low polyreactivity
QVQLVESGGGLVQAGGSLRLSCAASGSTFYYYAMGWYRQAPGKEREFVAAISGGDGTTSYADSVKGRFTISRDNAKNTVYLQMNSLKPEDTAVYYCATPYTSYLYGYDYWGQGTQVTVSS	low polyreactivity
QVQLVESGGGLVQAGGSLRLSCAASGSTFYYYAMGWYRQAPGKEREFVASISSRGTSTYYADSVKGRFTISRDNAKNTVYLQMNRLKPEDTAVYYCAARGWGPTRAYDYWGQGTQVTVSS	high polyreactivity
QVQLVESGGGLVQAGGSLRLSCAASGSTFYYYAMGWYRQAPGKERELVAAINYNGGSTHYADSVKGRFTISRDNAKNTVYFQMNSLKPEDTAVYYCAAKYRLSYTHGYWGQGTQVTVSS	low polyreactivity
QVQLVESGGGLVQAGGSLRLSCAASGSTFYYYAMGWYRQAPGKERELVAAIRSSGGSTYYADSVKGRFTISRDNAKNTVYLQMNSLKPEDTAVYYCIHYLSTYHGTFTYGYWGQGTQVTVSS	low polyreactivity
QVQLVESGGGLVQAGGSLRLSCAASGSTFYYYAMGWYRQAPGKERELVATIDSGTSTYYADSVKGRFTISRDNAKNTVYLQMISLKPEDTAVYYCAAKTWSWSYGYNYWGQGTQVTVSS	low polyreactivity
QVQLVESGGGLVQAGGSLRLSCAASGSTFYYYAMGWYRQAPGKERELVATISSGSSTNYADSVKGRFTISRDNAKNTVYLQMNCLKPEDTAVYYCAADRWYITLSIDATISYDYWGQGTQVTVSS	low polyreactivity
QVQLVESGGGLVQAGGSLRLSCAASGSTFYYYAMGWYRQAPGKERELVAVIRDSDGSTDYADSVKGRFTISRDKAKNTVYLQMNSLKPEDTAVYYCAATNVRGVYYWGQGTQVTVSS	high polyreactivity
QVQLVESGGGLVQAGGSLRLSCAASGSTFYYYAMGWYRQAPGKVRELVATISWSGDSTYADSVKGRFTISRDNAKNTVYLQMNSLKPEDTAVYYCATSGDWWGFRYVYWGQGTQVTVSS	low polyreactivity
QVQLVESGGGLVQAGGSLRLSCAASGSTFYYYGMGWYRQAPGKERELVATISGSGGSTYYADSVKGRFTITRDNAKNTVYLQMNSLTQEDTSVYYCNKDVLPSQTYSNVYWGQGTQVSVSS	low polyreactivity
QVQLVESGGGLVQAGGSLRLSCAASGSTFYYYVMGWYRQAPGKERELVAAISRGGGSTYYADSVKGRFTISRDNAKNTVYLQMNSLKPEDTAVYYCAAASYYVEGDYWGQGTQVTVSS	low polyreactivity
QVQLVESGGGLVQAGGSLRLSCAASGSTFYYYVMGWYRQAPGKERELVAVISKSGGSTRYADSVKGRFTISRDNAKNTVYLQMNSLKPEDTAVYYCAADGLRLVPGYKYDYWGQGTQVTVSS	high polyreactivity
QVQLVESGGGLVQAGGSLRLSCAASGSTGYYAMGWYRQAPGKERELVAAISYRGASTYYADSVKGRFTISRDNAKNTVYLQMNSLKPEDTAVYYCAALRQERVKYGYWGQGTQVTVSS	high polyreactivity
QVQLVESGGGLVQAGGSLRLSCAASGSTIATYAMGWYRQAPGKERELVATISSSGSGTYYADSVKGRFTISRDNAKNTVYLQMNSLKPEDTAVYYCAVDSRGKLGISGEYGYWGQGSQVTVSS	low polyreactivity
QVQLVESGGGLVQAGGSLRLSCAASGSTIDINTKGWYRQAPGKEREFVAAITDSDDSTYYADSVKGRFTISRDNAKNTVYLQMNSLKPEDTAVYYCATDPDYVLYRTAYYEYDYWGQGTQVTVSS	low polyreactivity
QVQLVESGGGLVQAGGSLRLSCAASGSTIDVYTMGWYRQAPGKERELVAAISRGSSTYYADSVKGRFTISRDNAKNTVYLQMNSLKPEDTAVYYCNAVTSRKYRRYGYGYWGQGTQVTVSS	high polyreactivity
QVQLVESGGGLVQAGGSLRLSCAASGSTIDVYTMGWYRQAPGKERELVAAISRGSSTYYADSVKGRFTISRDNAKYTVYVQMNSLKPEDTAVYYCNAVTSRKYRRYGYGYWGQGTQVTVSS	high polyreactivity
QVQLVESGGGLVQAGGSLRLSCAASGSTIDYYAMGWYRQAPGKERELVAGIDSAGSTNYADSVKGRFTISRDNAKNTFYLQMNSLKTGRYRGLYCNVGKTITTYAFTTFDYWGQGTHVTVSS	low polyreactivity
QVQLVESGGGLVQAGGSLRLSCAASGSTIEPYAMGWYRQAPGKERELLAAITLSAGSTYYADSVKGRFTISRDYAKNTVYLQMNSLNPEDTAVYYCNADYGYNNQLLWGYYGWSSDHWGQGTQVTVSS	low polyreactivity
QVQLVESGGGLVQAGGSLRLSCAASGSTIFAYAMGWYRQAPGKERELVAAIRRGGTSTYYADSVKGRFTISRDNAKNTVYLQMNSLKPEDTAVYYCNKAYITKRGVSGSNDYWGQGTQVTVSS	low polyreactivity
QVQLVESGGGLVQAGGSLRLSCAASGSTIFGNVMGWYRQAPGKERELVAAISKTGGNTYYADSVKGRFTISRDNAKNTVYLQMNSLKPEDTAVYYCNALRGDWRDMGYWGQGTQVTVSS	high polyreactivity
